Measured values as given in patent US20190062425A1 (BETH ISRAEL DEACONESS MEDICAL CENTER, published 2019).

Target: T1, human transmembrane-4 L six family member-1 (TM4SF1), full-length (human, UniProt P30408 1-202, N-glycosylated at N129 and N159 (ECL2))
T1 construct: whole, on cells; Four-transmembrane plasma membrane glycoprotein; It was tested on cells (HUVEC, transduced HDF and HEMn), in tissue sections and on immunoblots; also called FL-TM4SF1; FL
T1 sequence (looked up): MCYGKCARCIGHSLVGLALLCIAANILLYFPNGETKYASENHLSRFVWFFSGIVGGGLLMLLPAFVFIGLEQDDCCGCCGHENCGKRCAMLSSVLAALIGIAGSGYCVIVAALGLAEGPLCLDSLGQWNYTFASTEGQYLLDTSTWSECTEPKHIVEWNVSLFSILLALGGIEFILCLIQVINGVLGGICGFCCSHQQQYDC
Experiment: method not stated

Kd: ~1 nM
B1: 8G4 antibody (anti-TM4SF1 mouse monoclonal antibody produced by hybridoma mouse cell line 8G4-5-13-13F, PTA-120523) (antibody, V domains shown)
VH: EVILVESGGGLVKPGGSLKLSCAASGFTFSSFAMSWVRQTPEKRLEWVATISSGSIYIYYTDGVKGRFTISRDNAKNTVHLQMSSLRSEDTAMYYCARRGIYYGYDGYAMDYWGQGTSVTVSS
VL: AVVMTQTPLSLPVSLGDQASISCRSSQSLVHSNGNTYLHWYMQKPGQSPKVLIYKVSNRFSGVPDRFSGSGSGTDFTLKISRVEADDLGIYFCSQSTHIPLAFGAGTKLELK
notes: Mouse monoclonal antibody from a hybridoma; both have the length of variable domains; also called anti-TM4SF1 antibody 8G4
